In patent US20220305135A1 (UNIVERSITY OF CHICAGO, published 2022):

Columns and labels:
[1] = biological target: T1, extra domain A (EDA) of fibronectin; test: ELISA, EDA coated on plate, Fab titrated, anti-human IgG-HRP detection; apparent Kd by one-site nonlinear regression
T1 chain: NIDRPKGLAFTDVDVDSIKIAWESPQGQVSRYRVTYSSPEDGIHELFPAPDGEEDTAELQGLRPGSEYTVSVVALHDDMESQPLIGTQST

[2] = biological target: T1, extra domain A (EDA) of fibronectin; test: ELISA on plates coated with 10 µg/mL EDA, detection with HRP anti-human IgG, absorbance at 450 nm [panel C]

B1: Human anti-EDA Fab (Fab, V domains shown)
VH: EVQLLESGGGLVQPGGSLRLSCAASGFTFSVMKMSWVRQAPGKGLEWVSAISGSGGSTYYADSVKGRFTISRDNSKNTLYLQMNSLRAEDTAVYYCAKSTHLYLFDYWGQGTLVTVSS
VL: EIVLTQSPGTLSLSPGERATLSCRASQSVSNAFLAWYQQKPGQAPRLLIYGASSRATGIPDRFSGSGSGTDFTLTISRLEPEDFAVYYCQQMRGRPPTFGQGTKVEIKR
notes: Made recombinantly in HEK-293F cells
Question: For B1, which Kd [1] is on record?
Answer: 50.9 nM

Question: And the “EC50 (read off the curve)” value [2]?
Answer: ~80 nM
